Here are results for one protein from article doi:10.1101/324103 (bioRxiv, 2018).

This series deals with the molecule itself. Briefly: SEC-MALS + AUC.

B1: ammonium transporter AmtB from Escherichia coli (natural protein)
chain: APAVADKADNAFMMICTALVLFMTIPGIALFYGGLIRGKNVLSMLTQVTVTFALVCILWVVYGYSLAFGEGNNFFGNINWLMLKNIELTAVMGSIYQYIHVAFQGSFACITVGLIVGALAERIRFSAVLIFVVVWLTLSYIPIAHMVWGGGLLASHGALDFAGGTVVHINAAIAGLVGAYLIGKRVGFGKEAFKPHNLPMVFTGTAILYIGWFGFNAGSAGTANEIAALAFVNTVVATAAAILGWIFGEWALRGKPSLLGACSGAIAGLVGVTPACGYIGVGGALIIGVVAGLAGLWGVTMLKRLLRVDDPCDVFGVHGVCGIVGCIMTGIFAASSLGGVGFAEGVTMGHQLLVQLESIAITIVWSGVVAFIGYKLADLTVGLRV
B1: the “stoichiometry N” value was found to be 3.
